Assays:
[1] = biological target: T1, CD3 (as used for the BIACORE kinetics of Table 11) (UniProt P07766 23-126); experiment: SPR (BIACORE)
T1 construct: CD3 mAb 1 is described as an anti-human CD3 antibody
Method: Variants of the CD123×CD3 DART-A-type diabody (designated DART-A-WT; amino acid sequences provided above) were generated comprising the VH and VL Domains of the identified scFvs. Thus, a panel of DART-A-type diabodies, designated DART-A-M1-DART-A-M26, comprising vCD3-Binding Domains (such vCD3-Binding Domains being respectively designated “CD3 mAb 1 M1-CD3 mAb 1 M26”) were generated. The CD3-binding kinetics of DART-A-M1-DART-A-M26 were measured by BIACORE® and compared to DART-A-WT. Table 11 summarizes the CD3-binding kinetics of DART-A-WT and the DART-A-type diabodies comprising the vCD3-Binding Domains of CD3 mAb 1 M1-CD3 mAb 1 M26, ranked by kₐ (R denotes kₐ, kd, or kD ratio of variant DART-A-type diabody (comprising a vCD3-Binding Domain) to DART-A-WT (comprising the rCD3-Binding Domain of CD3 mAb 1)).

CD3 on T-cells = CD3 on T-cells (UniProt P07766 23-207); experiment: cell-based or functional assay
Chain of CD3 on T-cells (P07766 23-207): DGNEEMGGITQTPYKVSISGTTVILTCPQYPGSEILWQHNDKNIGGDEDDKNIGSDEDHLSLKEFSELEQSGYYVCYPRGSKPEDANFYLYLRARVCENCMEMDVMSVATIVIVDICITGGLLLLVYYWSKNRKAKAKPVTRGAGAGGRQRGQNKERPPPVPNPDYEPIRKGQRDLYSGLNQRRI

T1 sequence (P07766 23-126): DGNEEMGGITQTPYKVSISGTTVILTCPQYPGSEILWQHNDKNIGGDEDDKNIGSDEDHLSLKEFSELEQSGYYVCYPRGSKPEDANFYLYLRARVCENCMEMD

Binder | Kd [1] | R (KD ratio to DART-A-WT) [1] | R (ka ratio to DART-A-WT) [1] | R (kd ratio to DART-A-WT) [1] | koff [1] | kon [1] | EC50 of cytolysis at 18 hours (CTL assay, Pan-T-cells and MOLM-13, E:T = 5:1) (CD3 on T-cells) | EC50 of cytolysis at 42 hours (CTL assay, Pan-T-cells and MOLM-13, E:T = 5:1) (CD3 on T-cells) | R: ratio of 18 hour EC50 to DART-A-WT (CTL assay, Pan-T-cells and MOLM-13, E:T = 5:1) (CD3 on T-cells) | R: ratio of 42 hour EC50 to DART-A-WT (CTL assay, Pan-T-cells and MOLM-13, E:T = 5:1) (CD3 on T-cells) | max % CytoTox at 18 hours (CTL assay, Pan-T-cells and MOLM-13, E:T = 5:1) (CD3 on T-cells) | max % CytoTox at 42 hours (CTL assay, Pan-T-cells and MOLM-13, E:T = 5:1) (CD3 on T-cells)
DART-A-M23 (bispecific antibody, also called CD123 x CD3 DART-A-type diabody with CD3 mAb 1 M23) chain 1: DFVMTQSPDSLAVSLGERVTMSCKSSQSLLNSGNQKNYLTWYQQKPGQPPKLLIYWASTRESGVPDRFSGSGSGTDFTLTISSLQAEDVAVYYCQNDYSYPYTFGQGTKLEIKGGGSGGGGEVQLVESGGGLVQPGGSLRLSCAASGFTFSTYAMNWVRQAPGKGLEWVGRIRSKYNNYATYYADSVKDRFTISRDDSKNSLYLQMNSLKTEDTAVYYCVRHGNFGNSYVSWFAYWGQGTLVTVSSGGCGGGKVAALKEKVAALKEKVAALKEKVAALKE chain 2: QAVVTQEPSLTVSPGGTVTLTCRSSTGAVTTSNYANWVQQKPGQAPRGLIGGTNKRAPWTPARFSGSLLGGKAALTITGAQAEDEADYYCAEWYSNLWVFGGGTKLTVLGGGGSGGGGEVQLVQSGAELKKPGASVKVSCKASGYTFTDYYMKWVRQAPGQGLEWIGDIIPSNGATFYNQKFKGRVTITVDKSTSTAYMELSSLRSEDTAVYYCARSHLLRASWFAYWGQGTLVTVSSGGCGGGEVAALEKEVAALEKEVAALEKEVAALEK | 0.0269 µM | 3.3 | 0.9 | 3 | 0.0124 s⁻¹ | 459000 M⁻¹ s⁻¹ | 0.421 ng/mL | 0.061 ng/mL | 5.3 ratio | 21.6 ratio | 49.3% | 31.4%
DART-A-M25 (bispecific antibody, also called CD123 x CD3 DART-A-type diabody with CD3 mAb 1 M25) chain 1: DFVMTQSPDSLAVSLGERVTMSCKSSQSLLNSGNQKNYLTWYQQKPGQPPKLLIYWASTRESGVPDRFSGSGSGTDFTLTISSLQAEDVAVYYCQNDYSYPYTFGQGTKLEIKGGGSGGGGEVQLVESGGGLVQPGGSLRLSCAASGFTFSTYAMNWVRQAPGKGLEWVGRIRSKYNNYATYYADSVKDRFTISRDDSKNSLYLQMNSLKTEDTAVYYCVRHGNFGNSYVSWFAYWGQGTLVTVSSGGCGGGKVAALKEKVAALKEKVAALKEKVAALKE chain 2: QAVVTQEPSLTVSPGGTVTLTCRSSTGAVTTSNYANWVQQKPGQAPRGLIGDTNKRAPWTPARFSGSLLGGKAALTITGAQAEDEADYYCALWYSNLWVFGGGTKLTVLGGGGSGGGGEVQLVQSGAELKKPGASVKVSCKASGYTFTDYYMKWVRQAPGQGLEWIGDIIPSNGATFYNQKFKGRVTITVDKSTSTAYMELSSLRSEDTAVYYCARSHLLRASWFAYWGQGTLVTVSSGGCGGGEVAALEKEVAALEKEVAALEKEVAALEK | 0.125 µM | 15 | 0.3 | 4.7 | 0.0192 s⁻¹ | 154000 M⁻¹ s⁻¹ | 0.585 ng/mL | 0.1 ng/mL | 7.4 ratio | 35.7 ratio | 46.6% | 30.4%
DART-A-M26 (bispecific antibody, also called CD123 x CD3 DART-A-type diabody with CD3 mAb 1 M26) chain 1: DFVMTQSPDSLAVSLGERVTMSCKSSQSLLNSGNQKNYLTWYQQKPGQPPKLLIYWASTRESGVPDRFSGSGSGTDFTLTISSLQAEDVAVYYCQNDYSYPYTFGQGTKLEIKGGGSGGGGEVQLVESGGGLVQPGGSLRLSCAASGFTFSTYAMNWVRQAPGKGLEWVGRIRSKYNNYATYYADSVKDRFTISRDDSKNSLYLQMNSLKTEDTAVYYCVRHGNFGNSYVSWFAYWGQGTLVTVSSGGCGGGKVAALKEKVAALKEKVAALKEKVAALKE chain 2: QAVVTQEPSLTVSPGGTVTLTCRSSTGAVTTSNYANWVQQKPGQAPRGLIGGTNGRAPWTPARFSGSLLGGKAALTITGAQAEDEADYYCALWYSNLWVFGGGTKLTVLGGGGSGGGGEVQLVQSGAELKKPGASVKVSCKASGYTFTDYYMKWVRQAPGQGLEWIGDIIPSNGATFYNQKFKGRVTITVDKSTSTAYMELSSLRSEDTAVYYCARSHLLRASWFAYWGQGTLVTVSSGGCGGGEVAALEKEVAALEKEVAALEKEVAALEK | 0.0544 µM | 6.7 | 0.6 | 4.3 | 0.0174 s⁻¹ | 319000 M⁻¹ s⁻¹ | 0.444 ng/mL | 0.078 ng/mL | 5.6 ratio | 27.9 ratio | 44.2% | 28.2%
DART-A-WT (bispecific antibody, Two-chain diabody without Fc; Kabat position 65 of the CD3 VH is D; also called CD3 Mab-1; Wild-Type) chain 1: DFVMTQSPDSLAVSLGERVTMSCKSSQSLLNSGNQKNYLTWYQQKPGQPPKLLIYWASTRESGVPDRFSGSGSGTDFTLTISSLQAEDVAVYYCQNDYSYPYTFGQGTKLEIKGGGSGGGGEVQLVESGGGLVQPGGSLRLSCAASGFTFSTYAMNWVRQAPGKGLEWVGRIRSKYNNYATYYADSVKDRFTISRDDSKNSLYLQMNSLKTEDTAVYYCVRHGNFGNSYVSWFAYWGQGTLVTVSSGGCGGGKVAALKEKVAALKEKVAALKEKVAALKE chain 2: QAVVTQEPSLTVSPGGTVTLTCRSSTGAVTTSNYANWVQQKPGQAPRGLIGGTNKRAPWTPARFSGSLLGGKAALTITGAQAEDEADYYCALWYSNLWVFGGGTKLTVLGGGGSGGGGEVQLVQSGAELKKPGASVKVSCKASGYTFTDYYMKWVRQAPGQGLEWIGDIIPSNGATFYNQKFKGRVTITVDKSTSTAYMELSSLRSEDTAVYYCARSHLLRASWFAYWGQGTLVTVSSGGCGGGEVAALEKEVAALEKEVAALEKEVAALEK | 0.00817 µM | 1 | 1 | 1 | 0.00409 s⁻¹ | 500000 M⁻¹ s⁻¹ | 0.079 ng/mL | 0.003 ng/mL | 1 ratio | 1 ratio | 39% | 29.1%
DART-A-M24 (bispecific antibody, also called CD123 x CD3 DART-A-type diabody with CD3 mAb 1 M24) chain 1: DFVMTQSPDSLAVSLGERVTMSCKSSQSLLNSGNQKNYLTWYQQKPGQPPKLLIYWASTRESGVPDRFSGSGSGTDFTLTISSLQAEDVAVYYCQNDYSYPYTFGQGTKLEIKGGGSGGGGEVQLVESGGGLVQPGGSLRLSCAASGFTFSTYAMNWVRQAPGKGLEWVGRIRSKYNNYATYYADSVKDRFTISRDDSKNSLYLQMNSLKTEDTAVYYCVRHGNFGNSYVSWFAYWGQGTLVTVSSGGCGGGKVAALKEKVAALKEKVAALKEKVAALKE chain 2: QAVVTQEPSLTVSPGGTVTLTCRSSTGAVTTSNYANWVQQKPGQAPRGLIGGTNKRAPWTPARFSGSLLGGKAALTITGAQAEDEADYYCAQWYSNLWVFGGGTKLTVLGGGGSGGGGEVQLVQSGAELKKPGASVKVSCKASGYTFTDYYMKWVRQAPGQGLEWIGDIIPSNGATFYNQKFKGRVTITVDKSTSTAYMELSSLRSEDTAVYYCARSHLLRASWFAYWGQGTLVTVSSGGCGGGEVAALEKEVAALEKEVAALEKEVAALEK | 0.0145 µM | 1.8 | 1.2 | 2.1 | 0.00861 s⁻¹ | 594000 M⁻¹ s⁻¹ | 0.34 ng/mL | 0.031 ng/mL | 4.3 ratio | 11.1 ratio | 49.4% | 31.1%
